Results from the DeepSol protein solubility set.

test: soluble on expression in E. coli; label from the status in PepcDB or PDB records

Which “soluble on expression in E. coli” value does the source give for “MSTMSSPIYIQIHNQIKQAIEAGRWAVGDRIPSERELATQFDVSRMTLRQAIQTLVDEGILERRVGAGTFVANQKVQEKMSGVTSFTDLMLAQGKVPSSKTISYHVTSPSLSESEKLALGANEQVLRMERIRYGDDVPICFEVATVPERLVKQFTKDEITSSLYRTLEEKASLVPGKAQQTVSAMSASERIAEYLSVRRGDALLRLRQISYLQTGEPFEYVRTQYVGNRFEFYLEK” here?
The value was “not soluble”.

Which “soluble on expression in E. coli” value does the source give for “APSCPAGSLCTYSGTGLSGARTVIPASDMEKAGTDGVKLPASARSFANGTHFTLRYGPARKVTCVRFPCYQYATVGKVAPGAQLRSLPSPGATVTVGQDLGD” here?
The value was “soluble”.

For “GMGKGKSAIESQIRMLKLAKEIVEEVASSFPNLEEVYIFGSRARGDYLDTSDIDILFVFKGIKEMNVFDRMYMVSRFIRGNVDYIVLDEGEKDRVKDKVLFWKREKGFVLL”, which “soluble on expression in E. coli” value is on record?
Its value is “soluble”.

For “MSLARFVVLVIDSFGVGAMKDVTLVRPQDAGANTCGHILSQLPHLQLPTLETLGLINALGYAPGDMQPSDSATWGVAELQHEGGDTFMGHQEILGTRPLPPLRMPFRDVIDRVEQALVSAGWQVERRGDDLQFLWVNQAVAIGDNLEADLGQVYNITANLSVISFDDAIKIGRIVREQVQVGRVITFGGLLTDSQRILDAAESKEGRFIGINAPRSGAYDNGFQVVHMGYGVDEKVQVPQKLYEAGVPTVLVGKVADIVNNPYGVSWQNLVDSQRIMDITLNEFNTHPTAFICTNIQETDLAGHAEDVARYAERLQVVDRNLARLVEAMQPDDCLVVMADHGNDPTIGHSHHTREVVPVLVYQQGMIATQLGVRTTLSDVGATVCEFFRAPPPQNGRSFLSSLRFAGDTLEGHHHHHH”, which “soluble on expression in E. coli” value is on record?
Its value is “soluble”.

For “MGSDKIHHHHHHMDIDLARTFLEIARSGSFVAAAERLHLTQTAVTARIQNLEGQLGCRLFVRNRAGARLTADGEHFLGYASQLVQTWDAARRDLPLPDGFRNLLNLGGEVSLCNPLLLNWMRRLREAIPGHAVRVEIGQGADLLKQLEQGALDAALVYQPEYWPGLQVEQLLEEKLVMVRSVLSAEPYLYVDWGPDFRSQHDAALPDRAKAALACNLGPLALQYIMQNGGSGYFRTRVVSSYLDGGTLQRVEQAPEFAYPTYLVYSRERLSPTLRHAFQLLREVVREDSDWSQRWDYVI”, which “soluble on expression in E. coli” value is on record?
The value was “not soluble”.

Which “soluble on expression in E. coli” value does the source give for “RSSLRKKEFGSKERLLEELRCKKTVLHEVDVTLDPDTAHPHLFLYEDSKSVRLEDSRQILPDRPERFDSWPCVLGRETFTSGRHYWEVEVGDRTDWAIGVCRENVVKKGFDPMTPDNGFWAVELYGNGYWALTPLRTSLRLAGPPRRVGVFLDYDAGDISFYNMSNGSLIYTFPSISFSGPLRPFFCLWSCGKKPLTICSTANGPEKVTVIANVQDD” here?
Its value is “not soluble”.

For “MSLQFFDRKETMKFPSDFIEKYKDLLGAEAEEFFTSFDQEAVSAYRINPLKKQQKDYPDPIPGTPWGYYGKISGKSSDHATGLVYSQEPAAQMVAQVAAPSKGSRVLDLAAAPGGKSTHLLSYVDNTGLLVSNEIDFTRSKVLVENLERFGAKNVVVNHTSADKLAEVFKNYFDMIVFDGPCSGEGMFRKDPDAIQYWHKDYPSELAQLQKDILADGLKMLAPGGQLVYSTCTWSPEENEGVVAWILENYPDLELVAIPKLSGMSDGIDFPETARMYPHHFKGEGQFVAKFQDKRMPEQSCIKEGKTNLNKEQKQLWDDFVKKHLKLPLDGLLQVFGDNLYLLPRGLPDLSKVKIARNGLHLGIFKKKRFEPSFALGIALTSDEVVSSIELTQEQFAQYASGNVVTLDQTLENGWYQLLVDGNGFGFAKVIGNTLKNYYPKGLRFHEGHHHHHH”, which “soluble on expression in E. coli” value is on record?
The value was “soluble”.

With “MGSDKIHHHHHHMTPIAQRDGQAIQLVGFDGDDTLWKSEDYYRTAEADFEAILSGYLDLGDSRMQQHLLAVERRNLKIFGYGAKGMTLSMIETAIELTEARIEARDIQRIVEIGRATLQHPVEVIAGVREAVAAIAADYAVVLITKGDLFHQEQKIEQSGLSDLFPRIEVVSEKDPQTYARVLSEFDLPAERFVMIGNSLRSDVEPVLAIGGWGIYTPYAVTWAHEQDHGVAADEPRLREVPDPSGWPAAVRALDAQAGRQQ” as the sequence, how does the “soluble on expression in E. coli” value read?
Its value is “not soluble”.

Which “soluble on expression in E. coli” value does the source give for “MKFSRPVLSVNHLILGKKCDVCRKKCSGDVLKANDKYFHINCFQCKKCGRNLGETGFYTTPENAYLCPDDFRAVSKEITVKTTTQQAHASSSSAATPKSPEKSNGTTDVSSSGAANATLQQISPLGSPTTCAACDQALHSGQVLLALGLSWHVYCFKCSECSAVLHGEYMSHHGKPLCLRDYNEKFGVKCYECEKFIAGKVLQAGGYKFHPTCARCSRCGSHFGDGEEMYMQGDEIWHPSCEHARTTENIAPTGRAATLSRNEPKYQSTFGQHQAYMYLLPEVEQTYLRHPVMNAKEPNAPQYHVPQGPIKIRKSRMSMLKTGMQRLTEDLEKNIPRPKSPHMDNEEPIELAHYPAAHVPDPDTLPAIEREDFPAPQFPYAVEELKRRLSTSSVENEISDDEYSESDKVDEDKLRKTVETLEKYNDSSIAHVIRQNIEDSHKKQRLPLHWDPRNASRTPSGKKMPHLKFRYDVPINASPSRHLNRPRPWVVWQGGERDQGNNTLPCFHIPEDSRANTLRAATLPTEFGQNLSLENLDTTISSHYSEHSTTESGTAGGPRSAGGAVLRSSLPDMSKPAKQYDLLFLQTTNSDLPEDVDRQHLERHLPRDQFEEIFKMSLIEFYKLPEWKRINLKRKHKLF” here?
The value was “not soluble”.

Which “soluble on expression in E. coli” value does the source give for “MTDTIEAKANMQTVSALPPEETERLGTEIVAALKTVFDPEIPADIYELGLIYKVEIKDDRTVDIDMTLTTPNCPAAAELPTMVENAVASVPGVGVVNVNIVWEPPWTPERMSDEARLVLNMW” here?
The value was “not soluble”.

With “MGSDKIHHHHHHMYGNKIVFSGLENIKDCCKMKITRDELLIAAFKLFMSVNYEKASFAELGKMLGMSKAGIFKYYKNKQELFIAVVDKFWFSTQNPRNKFTETNGTFAEFIDEYVRGVQRTMDMLGDLIGAEREKVAQGKFTYHAQYFHFLFQLLQYDPDAKEKLRNLVEVDYAYWRAAIQRAIATGELREDVDVEDAVVMFRQVYMGLSFEMAFMGGLNTQRLAKHLHAVYSLLKR” as the sequence, how does the “soluble on expression in E. coli” value read?
The value was “not soluble”.

With “AENDKPQYLSDWWHQSVNVVGSYHTRFGPQIRNDTYLEYEAFAKKDWFDFYGYADAPVFFGGNSDAKGIWNHGSPLFMEIEPRFSIDKLTNTDLSFGPFKEWYFANNYIYDMGRNKDGRQSTWYMGLGTDIDTGLPMSLSMNVYAKYQWQNYGAANENEWDGYRFKIKYFVPITDLWGGQLSYIGFTNFDWGSDLGDDSGNAINGIKTRTNNSIASSHILALNYDHWHYSVVARYWHDGGQWNDDAELNFGNGNFNVRSTGWGGYLVVGYNFHHHHHH” as the sequence, how does the “soluble on expression in E. coli” value read?
Its value is “soluble”.

For “MTKFNWHESAEKKWDSSAEFWNQNSQEMWDSGSRSTIIPFFEQYVKKEAQVLDVGCGDGYGTYKLSSAGYKAVGVDLSEVMIQKGKERGEGPNLSFIKGDLSALPFENEQFESIMAINSLEWTEEPLRALNEIKRVLKKDGYACIAILGPTAKPRENSYLRLYGKDVVCNTMMPWEFEQLAKEQGFKVIDGIGVYKRGVNEKMLGQLPTELQQSLTFLWVFMLKNV”, which “soluble on expression in E. coli” value is on record?
The value was “not soluble”.

For “MSLSQIAVRTFHDIRAALLARRELALLDVREEDPFAQAHPLFAANLPLSRLELEIHARVPRRDTPITVYDDGEGLAPVAAQRLHDLGYSDVALLDGGLSGWRNAGGELFRDVNVPSKAFGELVEAERHTPSLAAEEVQALLDARAEAVILDARRFDEYQTMSIPGGISVPGAELVLRVAELAPDPRTRVIVNCAGRTRSIIGTQSLLNAGIPNPVAALRNGTIGWTLAGQQLEHGQTRRFGAISQDTRKAAAQRARAVADRAGVERLDLAGLAQWQDEHDRTTYLLDVRTPEEYEAGHLPGSRSTPGGQLVQETDHVASVRGARLVLVDDDGVRANMSASWLAQMGWQVAVLDGLSEADFSERGAWSAPLPRQPRADTIDPTTLADWLGEPGTRVLDFTASANYAKRHIPGAAWVLRSQLKQALERLGTAERYVLTCGSSLLARFAVAEVQALSGKPVFLLDGGTSAWVAAGLPTEDGESLLASPRIDRYRRPYEGTDNPREAMQGYLDWEFGLVEQLGRDGTHGFFVIEGGSHHHHHH”, which “soluble on expression in E. coli” value is on record?
Its value is “soluble”.

For “LWHASIAIVGSRQPSAGGLDHSYGFAQALAARGLGIISGMAAGIDATAHEAALSIPSGHTVAVLGTGPDVPYPARHKKLHARITTDGAVISEYPPGTQPRAAHFPQRNRIIAGLALGTLVVEAGARSGALITARLAAEAGRAVFAVPGSLHNPMTRGCHQLIRQGATLVQDIDQILED”, which “soluble on expression in E. coli” value is on record?
Its value is “not soluble”.
